The assay concerns the target human Hsp90α (residues 1–732) (human, UniProt P07900 1-732). In words: ITC. Background: ITC needs no label: the signal is the heat of the interaction.

B1: Tom70:Orf9b_(Helix) complex (complex)
chain 1: MNSLDRAQAAKNKGNKYFKAGKYEQAIQCYTEAISLCPTEKNVDLSTFYQNRAAAFEQLQKWKEVAQDCTKAVELNPKYVKALFRRAKAHEKLDNKKECLEDVTAVCILEGFQNQQSMLLADKVLKLLGKEKAKEKYKNREPLMPSPQFIKSYFSSFTDDIISQPMLKGEKSDEDKDKEGEALEVKENSGYLKAKQYMEEENYDKIISECSKEIDAEGKYMAEALLLRATFYLLIGNANAAKPDLDKVISLKEANVKLRANALIKRGSMYMQQQQPLLSTQDFNMAADIDPQNADVYHHRGQLKILLDQVEEAVADFDECIRLRPESALAQAQKCFALYRQAYTGNNSSQIQAAMKGFEEVIKKFPRCAEGYALYAQALTDQQQFGKADEMYDKCIDLEPDNATTYVHKGLLQLQWKQDLDRGLELISKAIEIDNKCDFAYETMGTIEVQRGNMEKAIDMFNKAINLAKSEMEMAHLYSLCDAAHAQTEVAKKYGLKPPTL
chain 2: IILRLGSPLSLNMARKTLNSLEDKAFQLTPIAVQY
With B1, the binding result is given as “binds”.
